According to US20260242478A1 (published 2026):
Where no end group is shown, it is not given here.

B1: Phage-3267 (peptide)
peptide: LPYMCTPIWMCIGF
notes: Peptide-180 library clone, tested as clonal M13 phage displaying the peptide fused to pIII
B2: Phage-3268 (peptide)
peptide: VEVKCVPEWMCTGF
notes: as for B1
B3: Phage-3269 (peptide)
peptide: ISPRCEPLWMCTGL
notes: as for B1
B4: Phage-3270 (peptide)
peptide: LDPMCVPSWMCWGF
notes: as for B1
B5: Phage-3271 (peptide)
peptide: GGVLCQPAWMCIGF
notes: as for B1
B6: Phage-3272 (peptide)
peptide: INAWCIPAWMCEGF
notes: as for B1
B7: Phage-3273 (peptide)
peptide: SMGLCKPPWMCAGF
modifications: not fully specified; cysteine pairing not given here
notes: as for B1
B8: Phage-3274 (peptide)
peptide: MVVRCEPEWMCIGF
notes: as for B1
B9: Phage-3275 (peptide)
peptide: FDRICKPAWMCIEF
notes: as for B1
B10: Phage-3276 (peptide)
peptide: EFQMCVPEWMCTGL
notes: as for B1
B11: Phage-3277 (peptide)
peptide: PARMCVPAWMCSVL
notes: as for B1
B12: Phage-3278 (peptide)
peptide: LPPMCIPQWMCMHF
notes: as for B1
B13: Phage-3279 (peptide)
peptide: GEPWCIPSWMCQGF
notes: as for B1
B14: Phage-3280 (peptide)
peptide: WNHVCIPTWMCTGM
notes: as for B1
B15: Phage-3281 (peptide)
peptide: VERMCKPEWMCFGF
notes: Peptide-180 library clone, tested as clonal phage supernatant with the peptide fused to pIII of the bacteriophage
B16: Phage-3282 (peptide)
peptide: MEHWCVPAWMCSGF
notes: Peptide-180 library clone, tested as clonal phage supernatant with the peptide fused to pIII
B17: Phage-3283 (peptide)
peptide: FDHLCIPVWMCKGF
notes: as for B16
B18: Phage-3284 (peptide)
peptide: ELQRCIPQWMCVGL
notes: as for B16
B19: Phage-3285 (peptide)
peptide: FDTYCKPAWMCEGF
notes: as for B16
B20: Phage-3286 (peptide)
peptide: PTLRCEPLWMCAGF
notes: as for B16
B21: Phage-3287 (peptide)
peptide: ESLLCKPKWMCDWL
notes: as for B16
B22: Phage-3288 (peptide)
peptide: VDAYCKPAWMCLGF
notes: as for B16
B23: Phage-3289 (peptide)
peptide: EDYVCRPTWMCVGF
notes: as for B16
B24: Phage-3290 (peptide)
peptide: MDVLCRPEWMCTGF
notes: as for B16
B25: Phage-3291 (peptide)
peptide: PIPRCQPLWMCHGF
notes: as for B16
B26: Phage-3292 (peptide)
peptide: YEMRCVPDWMCVGL
notes: as for B16
B27: Phage-3293 (peptide)
peptide: ETLMCIPNWMCDGF
notes: as for B16
B28: Phage-3294 (peptide)
peptide: TDVMCVPQWMCDGF
notes: as for B16

molecular target: T1, PSMA Fab (006 PSMA Fab) (biotinylated for capture on neutravidin plates (site not stated)); assay: phage ELISA as above, wells pre-incubated with PSMA antigen as competitor
T1 construct: also called Anti-PSMA Fab; anti-PSMA Fab

Binder	Phage binding ELISA signal, Anti-PSMA Fab in presence of PSMA
B1	0.143
B2	0.0868
B3	0.0836
B4	0.0992
B5	0.0804
B6	0.137
B7	0.0756
B8	0.0649
B9	0.0573
B10	0.0838
B11	0.0732
B12	0.0592
B13	0.091
B14	0.0817

molecular target: T2, PSMA Fab; assay: clonal phage ELISA; biotinylated PSMA Fab on neutravidin plate; anti-M13 HRP detection
T2 construct: also called Anti-PSMA Fab; 006 PSMA Fab
Method: (§1) Clonal phage were harvested as crude supernatants and screened via standard ELISAs. […] Prior to the addition of clonal phage. wells were incubated with blocking buffer and PSMA antigen or blocking buffer alone. Without washing or aspirating, clonal phage supernatants were then added to the wells and incubated for a short time. Wells were then washed followed by detection of bound phage using a horse radish conjugated anti-M13 antibody.

Binder	Phage binding ELISA signal, Anti-PSMA Fab
ENVRCEPMWMCKGF [Phage-3260]	1.92
PTPVCKPGWMCDLF [Phage-3261]	1.92
VSIVCVPEWMCSGF [Phage-3262]	1.92
FFKMCIPEWMCSGF [Phage-3263]	1.91
EENFCVPKWMCEGF [Phage-3264]	1.91
EIMLCKPEWMCYGF [Phage-3265]	1.91
EYQVCKPTWMCTGF [Phage-3266]	1.91

molecular target: T3, PSMA Fab (biotinylated (site not stated)); assay: phage ELISA on captured PSMA Fab pre-incubated with PSMA antigen as competitor, anti-M13-HRP detection
T3 construct: also called Anti-PSMA Fab; 006 PSMA Fab

Binder	Phage binding ELISA signal, Anti-PSMA Fab with PSMA antigen
B15	0.102
B16	0.264
B17	0.0828
B18	0.0731
B19	0.0818
B20	0.0911
B21	0.0996
B22	0.0998
B23	0.0755
B24	0.0971
B25	0.085
B26	0.0906
B27	0.0837
B28	0.106

molecular target: T4, PSMA Fab; assay: clonal phage ELISA on biotinylated PSMA Fab captured on neutravidin, anti-M13 HRP detection, blocking buffer alone
T4 construct: In the panning ELISA the PSMA Fab was biotinylated and captured on neutravidin coated plates; also called Anti-PSMA Fab; 006 PSMA Fab
Method: as §1

Binder	Phage binding ELISA signal, Anti-PSMA Fab
NWKVCEPTWMCEGF [Phage-3308]	1.87
VERACVPAWMCTGF [Phage-3309]	1.87
IEKLCKPQWMCEGF [Phage-3310]	1.87
LEFRCVPEWMCVGF [Phage-3311]	1.87
DLRWCIPEWMCIGI [Phage-3312]	1.86
AEHVCRPAWMCTVF [Phage-3313]	1.86
LLEMCKPHWMCVGF [Phage-3314]	1.86
VEIACKPQWMCLGF [Phage-3315]	1.86
QEFRCVPEWMCIGL [Phage-3316]	1.86
SSVMCIPQWMCSGF [Phage-3317]	1.86

molecular target: T1, PSMA Fab (006 PSMA Fab); assay: phage ELISA: clonal phage supernatant on biotinylated PSMA Fab captured on neutravidin plate, anti-M13-HRP detection
Method: as §1

Binder	Phage binding ELISA signal, Anti-PSMA Fab
B1	1.91
B2	1.91
B3	1.91
B4	1.9
B5	1.9
B6	1.9
B7	1.9
B8	1.9
B9	1.9
B10	1.9
B11	1.9
B12	1.9
B13	1.9
B14	1.9

molecular target: T3, PSMA Fab; assay: phage ELISA: clonal phage on biotinylated PSMA Fab captured on neutravidin, anti-M13-HRP detection, blocking buffer alone
Method: as §1

Binder	Phage binding ELISA signal, Anti-PSMA Fab
B15	1.9
B16	1.89
B17	1.89
B18	1.89
B19	1.89
B20	1.89
B21	1.89
B22	1.89
B23	1.89
B24	1.89
B25	1.89
B26	1.89
B27	1.89
B28	1.89

molecular target: T2, PSMA Fab; assay: clonal phage ELISA; biotinylated PSMA Fab on neutravidin plate, wells pre-incubated with PSMA antigen as competitor; anti-M13 HRP detection;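 further: crude clonal phage supernatants added to antigen-treated wells without a wash, incubated briefly, then bound phage read out via horse radish–conjugated anti-M13 antibody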
Method: as §1

Binder	Phage binding ELISA signal, Anti-PSMA Fab in presence of PSMA
ENVRCEPMWMCKGF [Phage-3260]	0.0648
PTPVCKPGWMCDLF [Phage-3261]	0.0845
VSIVCVPEWMCSGF [Phage-3262]	0.0721
FFKMCIPEWMCSGF [Phage-3263]	0.205
EENFCVPKWMCEGF [Phage-3264]	0.126
EIMLCKPEWMCYGF [Phage-3265]	0.0998
EYQVCKPTWMCTGF [Phage-3266]	0.0904

molecular target: T4, PSMA Fab; assay: clonal phage ELISA on biotinylated PSMA Fab captured on neutravidin, anti-M13 HRP detection, wells pre-incubated with saturating PSMA antigen as competitor
Method: as §1

Binder	Phage binding ELISA signal, Anti-PSMA Fab with PSMA antigen
NWKVCEPTWMCEGF [Phage-3308]	0.0575
VERACVPAWMCTGF [Phage-3309]	0.0832
IEKLCKPQWMCEGF [Phage-3310]	0.129
LEFRCVPEWMCVGF [Phage-3311]	0.111
DLRWCIPEWMCIGI [Phage-3312]	0.0809
AEHVCRPAWMCTVF [Phage-3313]	0.0585
LLEMCKPHWMCVGF [Phage-3314]	0.085
VEIACKPQWMCLGF [Phage-3315]	0.0766
QEFRCVPEWMCIGL [Phage-3316]	0.0577
SSVMCIPQWMCSGF [Phage-3317]	0.0899
